# Experimental data as given in FireProtDB (doi:10.1016/j.jmb.2009.08.013).
# B1: Cellular tumor antigen p53 wild type, P67939 (protein)
# chain: MEESQAELNVEPPLSQETFSDLWNLLPENNLLSSELSAPVDDLLPYTDVATWLDECPNEAPQMPEPSAPAAPPPATPAPATSWPLSSFVPSQKTYPGNYGFRLGFLQSGTAKSVTCTYSPSLNKLFCQLAKTCPVQLWVDSPPPPGTRVRAMAIYKKLEHMTEVVRRCPHHERSSDYSDGLAPPQHLIRVEGNLRAEYLDDRNTFRHSVVVPYESPEIDSECTTIHYNFMCNSSCMGGMNRRPILTIITLEDSCGNLLGRNSFEVRVCACPGRDRRTEEENLRKKGQSCPEPPPRSTKRALPTNTSSSPQPKKKPLDGEYFTLQIRGFKRYEMFRELNDALELKDALDGREPGESRAHSSHLKSKKRPSPSCHKKPMLKREGPDSD
# Conditions: Bos taurus; pH 7.2; 10 °C; Urea; Fluorescence; Sodium phosphate 25 mM; KCl 150 mM; whole UniProt chain shown
protein,measurement,value
B1,denaturant midpoint (higher = more stable),5.21 M
